The target in experiment [1] is T1, monomeric RC–His12–LH1–PufX core complex (reaction centre light-harvesting 1-PufX) (Rba. sphaeroides, UniProt P0C0Y7 1-260; P0C0Y8 2-282; P0C0Y9 2-308; P0C0X9 1-58; P0C0Y1 1-49; P13402 1-82). Kind of experiment: PeakForce QNM single-molecule force spectroscopy (AFM); RC–LH1–PufX on the AFM tip, illuminated; pre-reduced cytochrome c2-His6 (and His6-CFP in patterned lines) held on a Ni-NTA SiOx substrate; 10 mM HEPES pH 7.4, 45 mM KCl, room temperature; modulation frequencies 0.5, 1 and 2 kHz. The conditions noted are these: both partners purified.

The target in experiment [2] is T1, monomeric RC–His12–LH1–PufX core …. The experiment in a line: single-molecule dynamic force spectroscopy (AFM); RC–LH1–PufX on the AFM tip via His12/Ni-NTA and a PEG12 linker, kept photo-oxidised by white light; pre-reduced cytochrome c2-His6 held on a Ni-NTA SiOx substrate via His6; 10 mM HEPES pH 7.4, 45 mM KCl, room temperature; retract velocity 200–3000 nm s^-1; the paper calls the values apparent. The conditions noted are these: both partners purified.

B1: cytochrome c2-His6 (natural protein)
chain: QEGDPEAGAKAFNQCQTCHVIVDDSGTTIAGRNAKTGPNLYGVVGRTAGTQADFKGYGEGMKEAGAKGLAWDEEHFVQYVQDPTKFLKEYTGDAKAKGKMTFKLKKEADAHNIWAYLQQVAVRP
notes: cytochrome c2, cloned from Rba. sphaeroides strain 2.4.1; Carries a haem cofactor; pre-reduced with 1 mM sodium dithionite before the measurements; The gene was cloned with its own start; the signal peptide is surmised to be cut in Rba. sphaeroides; also called Cyt c2–His6; cyt c2; source: Rba. sphaeroides ΔcycA strain carrying the gene on pRK415, purified (LDAO-solubilised membrane fraction, …)
In the case of B1, the koff in experiment [1] was determined as 198 s⁻¹; in experiment [2] it was 7.5 s⁻¹.

The values are drawn from PMC6688529, “Dissecting the cytochrome c2–reaction centre interaction in bacterial photosynthesis using single molecule force spectroscopy” (Biochemical Journal, 2019).
